Substitutions are numbered along the chain they refer to.
T1: hGH receptor on hGHR/Luc/HEK293F cells (human, UniProt P10912 19-638)
T1 sequence (looked up): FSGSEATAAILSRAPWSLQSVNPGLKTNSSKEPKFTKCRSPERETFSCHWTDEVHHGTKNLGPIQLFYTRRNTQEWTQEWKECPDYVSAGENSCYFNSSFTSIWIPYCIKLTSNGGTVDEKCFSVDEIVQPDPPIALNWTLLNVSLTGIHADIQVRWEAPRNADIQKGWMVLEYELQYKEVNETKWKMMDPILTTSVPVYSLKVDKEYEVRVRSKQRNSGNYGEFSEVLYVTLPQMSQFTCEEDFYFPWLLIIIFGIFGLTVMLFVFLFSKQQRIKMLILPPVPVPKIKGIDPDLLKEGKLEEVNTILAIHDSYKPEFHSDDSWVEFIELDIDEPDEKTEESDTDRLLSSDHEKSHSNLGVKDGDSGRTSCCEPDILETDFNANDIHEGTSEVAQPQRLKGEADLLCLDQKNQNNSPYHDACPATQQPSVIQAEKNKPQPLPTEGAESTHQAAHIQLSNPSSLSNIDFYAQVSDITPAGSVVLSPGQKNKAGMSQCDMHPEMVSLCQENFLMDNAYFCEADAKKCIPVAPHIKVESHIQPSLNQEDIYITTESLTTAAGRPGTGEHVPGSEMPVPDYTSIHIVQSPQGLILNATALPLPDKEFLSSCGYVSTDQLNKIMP

T2: recombinant hGH receptor Fc chimera (human, UniProt P10912 19-264)
T2 construct: also called hGH receptor chimera; not shown: Fc part of the chimera
T2 sequence (looked up): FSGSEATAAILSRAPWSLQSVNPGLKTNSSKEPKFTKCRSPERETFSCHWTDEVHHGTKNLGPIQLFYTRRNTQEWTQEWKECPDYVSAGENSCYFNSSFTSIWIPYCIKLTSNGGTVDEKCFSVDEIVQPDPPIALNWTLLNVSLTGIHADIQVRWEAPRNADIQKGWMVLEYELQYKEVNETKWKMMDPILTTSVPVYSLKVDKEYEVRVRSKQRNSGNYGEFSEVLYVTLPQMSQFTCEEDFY

B1: hGH-A10 (ligand)
chain: EDPQGDAANKTDTSHHDQDHPTFNKITPNLAEFAFSLYRQLAHQSNSTNIFFSPVSIATAFAMLSLGTKADTHDEILEGLNFNLTEIPEAQIHEGFQELLHTLNQPDSQLQLTTGNGLFLSEGLKLVDKFLEDVKKLYHSEAFTVNFGDTEEAKKQINDYVEKGTQGKIVDLVKELDRDTVFALVNYIFFKGKWERPFEVKDTEEEDFHVDQVTTVKVPMMKRLGMFNIQHCKKLSSWVLLMKYLGNATAIFFLPDEGKLQHLENELTHDIITKFLENEDRRSASLHLPKLSITGTYDLKSVLGQLGITKVFSNGADLSGVTEEAPLKLSKAVHKAVLTIDEKGTEAAGAMFLEAINMSIPPEVKFNKPFVFLMIDQNTKSPLFMGKVVNPTQKFPTIPLSRLFDNAMLRAHRLNQLAFDTYQEFEEAYIPKEQKYSFLQNPQTSLCPSESIPTPSNKEETQQKSNLELLRISLLLIQSWLEPVQFLRSVFANSLVYGASDSNVYDLLKDLEEKIQTLMGRLEDGSPRTGQIFKQTYSKFDTNSHNDDALLKNYGLLYCFNKDMSKVSTYLRIVQCRSVEGSCGF
notes: also called hGHRA-NexP
B2: hGH-A11 (ligand)
chain: B1 chain with H412D, Q440K, P448F, K458R, N561R, S565D, Y570F, I573T
notes: also called hGHRA-NexP
B3: hGH-A3 (ligand)
chain: FPTIPLSRLFDNAMLRAHRLNQLAFDTYQEFEEAYIPKEQKYSFLQNPQTSLCFSESIPTPSNREETQQKSNLELLRISLLLIQSWLEPVQFLRSVFANSLVYGASDSNVYDLLKDLEEKIQTLMGRLEDGSPRTGQIFKQTYSKFDTNSHNDDALLKNYGLLYCFRKDMDKVSTFLRIVQCRSVEGSCGFEDPQGDAANKTDTSHHDQDHPTFNKITPNLAEFAFSLYRQLAHQSNSTNIFFSPVSIATAFAMLSLGTKADTHDEILEGLNFNLTEIPEAQIHEGFQELLHTLNQPDSQLQLTTGNGLFLSEGLKLVDKFLEDVKKLYHSEAFTVNFGDTEEAKKQINDYVEKGTQGKIVDLVKELDRDTVFALVNYIFFKGKWERPFEVKDTEEEDFHVDQVTTVKVPMMKRLGMFNIQHCKKLSSWVLLMKYLGNATAIFFLPDEGKLQHLENELTHDIITKFLENEDRRSASLHLPKLSITGTYDLKSVLGQLGITKVFSNGADLSGVTEEAPLKLSKAVHKAVLTIDEKGTEAAGAMFLEAINMSIPPEVKFNKPFVFLMIDQNTKSPLFMGKVVNPTQK
notes: also called hGHRA-NexP
B4: hGH-A4 (ligand)
chain: B3 chain with H18D, I179T
notes: also called hGHRA-NexP
B5: hGH-A9 (ligand)
chain: B3 chain with H18D, Q46K, I179T
notes: also called hGHRA-NexP
B6: hGH-A6 (ligand)
chain: B3 chain with F54P, R64K, F176Y
notes: also called hGHRA-NexP
B7: hGH-A8 (ligand)
chain: B3 chain with H18D, R167N, K168A, D171S, K172R, I179T
notes: also called hGHRA-NexP
B8: hGH-A7 (ligand)
chain: B3 chain with F54P, R64K, R167N, D171S, F176Y
notes: also called hGHRA-NexP

How the values were obtained:
[1] = target: T1, hGH receptor on hGHR/Luc/HEK293F cells; experiment: cell-based or functional assay
[2] = target: T2, recombinant hGH receptor Fc chimera; experiment: ELISA on plate-coated recombinant hGH receptor Fc chimera, detected with biotinylated anti-hGH polyclonal antibody
Protocol: After additional washing step, 3,3',5,5'-tetramethylbenzidine (TMB) was added to each well to allow TMB reaction. Absorbance signals from the reaction were recorded at 450 nm to 650 nm.

| Molecule | Relative inhibitory potency (relative to Pegvisomant) [1] | Relative binding potency (relative to Pegvisomant) [2] | Relative inhibitory potency [1] | Relative binding potency [2] |
| --- | --- | --- | --- | --- |
| Pegvisomant (ligand) | 1 | 1 | – | – |
| B1 | – | – | 17.7 relative to Pegvisomant | 6.08 relative to Pegvisomant |
| B2 | – | – | 17.3 relative to Pegvisomant | 9.95 relative to Pegvisomant |
| B3 | – | – | 0.957 relative to Pegvisomant | 0.925 relative to Pegvisomant |
| B4 | – | – | 1.22 relative to Pegvisomant | 2.31 relative to Pegvisomant |
| B5 | – | – | 1.89 relative to Pegvisomant | 4.58 relative to Pegvisomant |
| B6 | – | – | 1.42 relative to Pegvisomant | 3.37 relative to Pegvisomant |
| B7 | – | – | 1.42 relative to Pegvisomant | 4.64 relative to Pegvisomant |
| B8 | – | – | 1.84 relative to Pegvisomant | 4.73 relative to Pegvisomant |
